These results are taken from patent US20130115256A1 (published 2013).

What all share (assay): cell-based or functional assay
Assay [1] addresses JNK (c-Jun N-terminal Kinase).
Assay [2] addresses T1, MKK4 (Mitogen-Activated Protein Kinase Kinase 4) (UniProt P45985 1-399).
T1 sequence: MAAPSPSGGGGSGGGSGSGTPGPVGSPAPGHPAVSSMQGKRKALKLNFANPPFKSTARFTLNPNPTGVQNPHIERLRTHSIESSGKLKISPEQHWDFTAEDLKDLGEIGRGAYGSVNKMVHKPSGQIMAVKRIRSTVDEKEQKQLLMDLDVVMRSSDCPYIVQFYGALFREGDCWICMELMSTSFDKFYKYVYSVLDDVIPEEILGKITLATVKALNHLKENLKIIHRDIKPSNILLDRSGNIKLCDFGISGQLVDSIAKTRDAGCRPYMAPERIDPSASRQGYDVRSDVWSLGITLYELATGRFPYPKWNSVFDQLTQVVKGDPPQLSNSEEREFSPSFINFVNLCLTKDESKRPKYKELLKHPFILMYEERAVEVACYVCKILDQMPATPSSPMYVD

The target in assay [3] is T2, MKK6 (Mitogen-Activated Protein Kinase Kinase) (UniProt P52564 1-334).
T2 sequence: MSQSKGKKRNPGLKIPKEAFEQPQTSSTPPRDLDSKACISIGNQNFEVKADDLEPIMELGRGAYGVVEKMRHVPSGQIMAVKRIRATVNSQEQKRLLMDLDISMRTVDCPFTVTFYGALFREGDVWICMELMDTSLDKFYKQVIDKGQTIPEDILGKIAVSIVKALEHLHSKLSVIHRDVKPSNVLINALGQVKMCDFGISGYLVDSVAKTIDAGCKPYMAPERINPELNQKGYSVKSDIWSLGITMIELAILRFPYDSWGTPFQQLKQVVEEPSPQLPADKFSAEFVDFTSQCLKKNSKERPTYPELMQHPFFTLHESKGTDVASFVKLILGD

Assay [4] concerns the target MEK1 (Meiosis-specific serine/threonine protein kinase) (UniProt Q02750 1-393).
Assay [5] concerns the target T3, PRAK (p38-Regulated/Activated Protein Kinase) (UniProt Q8IW41 1-473).
T3 sequence: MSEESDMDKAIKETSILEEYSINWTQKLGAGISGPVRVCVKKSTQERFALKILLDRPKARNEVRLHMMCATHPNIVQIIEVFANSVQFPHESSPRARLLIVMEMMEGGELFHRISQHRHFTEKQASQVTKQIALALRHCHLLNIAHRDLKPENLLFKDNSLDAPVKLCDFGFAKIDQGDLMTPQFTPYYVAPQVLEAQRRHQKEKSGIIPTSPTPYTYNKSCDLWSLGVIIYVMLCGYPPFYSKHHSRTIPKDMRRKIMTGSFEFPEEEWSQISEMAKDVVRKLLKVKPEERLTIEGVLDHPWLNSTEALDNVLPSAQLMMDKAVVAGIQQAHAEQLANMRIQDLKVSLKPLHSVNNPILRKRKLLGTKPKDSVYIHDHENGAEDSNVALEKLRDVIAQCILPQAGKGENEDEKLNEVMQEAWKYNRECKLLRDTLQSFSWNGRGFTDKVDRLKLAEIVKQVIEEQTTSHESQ

Assay [6] addresses p38 MAPK (p38 Mitogen-Activated Protein Kinase).

Where no end group is shown, it is not given here.

B1: MMI-0100 (YARAAARQARAKALARQLGVAA; SEQ ID NO: 1) (peptide)
peptide: YARAAARQARAKALARQLGVAA
modifications: not fully specified (C-terminus)
On to B1, for which the “Percent Activity (radiometric kinase assay, peptide at 100 µM)” value in assay [1] came to 92 % activity; in assay [2], 90 % activity; in assay [3] it was 50 % activity; in assay [4], 68 % activity; in assay [5], 100 % activity; in assay [6], 60 % activity.
